Test results reported in patent publication US20220064329A1 (Novo Nordisk, published 2022).
Positions count from the first letter of the chain named. In names and notes the source's numbering stands.

T1: recombinant human activated Factor VII (FVIIa) (human, UniProt P08709 61-212; P08709 213-466, ten glutamate residues of the Gla domain may be gamma-carboxylated)
T1 construct: chains tethered by a disulfide bond; also called Factor VIIa; rFVIIa
T1 sequence 1: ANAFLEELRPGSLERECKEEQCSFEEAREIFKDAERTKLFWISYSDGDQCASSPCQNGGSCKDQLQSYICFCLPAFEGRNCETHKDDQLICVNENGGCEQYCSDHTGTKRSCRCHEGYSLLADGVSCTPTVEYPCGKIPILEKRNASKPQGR
T1 sequence 2: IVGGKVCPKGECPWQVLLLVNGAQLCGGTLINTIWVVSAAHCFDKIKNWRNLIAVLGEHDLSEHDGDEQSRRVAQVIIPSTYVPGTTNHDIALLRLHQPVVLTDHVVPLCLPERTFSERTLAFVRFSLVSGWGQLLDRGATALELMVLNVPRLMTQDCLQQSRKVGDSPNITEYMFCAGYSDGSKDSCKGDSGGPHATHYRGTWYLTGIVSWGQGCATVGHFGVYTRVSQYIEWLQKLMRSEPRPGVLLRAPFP

B1: VH SEQ ID NO 578 / VL SEQ ID NO 318 (antibody, IgG4, V domains shown)
VH: QVQLQESGPGLVKPSDTLSLTCAVSGYSISSDSAWSWIRQPPGKGLEWIGYIQYSGSTNYNPSLKSRVTMSVDTSKNQFSLKLSSVTALDTAVYYCARSVNYYGNSFAVGPWGQGTLVTVSS
VL: EIVLTQSPATLSLSPGERATLSCRASQGISDYLHWYQQKPGEAPRLLIKYTSQPATGIPARFSGSGSGTDFTLTISSLEPEDFAVYYCQNGHSFPLTFGQGTKLEIK
notes: humanized 11F2; IgG4 S228P/kappa
B2: VH SEQ ID NO 586 / VL SEQ ID NO 326 (antibody, IgG4, V domains shown)
VH: B1 VH with P111Y
VL: B1 VL with A84G, Q100A, I106L
notes: as for B1
B3: VH SEQ ID NO 586 / VL SEQ ID NO 478 (antibody, IgG4, V domains shown)
VH: B1 VH with P111Y
VL: B1 VL with I29V, E42Q, T51A, N90Q
notes: as for B1
B4: VH SEQ ID NO 594 / VL SEQ ID NO 326 (antibody, IgG4, V domains shown)
VH: B1 VH with G45K
VL: B1 VL with A84G, Q100A, I106L
notes: as for B1
B5: VH SEQ ID NO 586 / VL SEQ ID NO 414 (antibody, IgG4, V domains shown)
VH: B1 VH with P111Y
VL: B1 VL with I29V, H34A, E42Q, T51A
notes: as for B1
B6: VH SEQ ID NO 578 / VL SEQ ID NO 462 (antibody, IgG4, V domains shown)
VH: B1 VH
VL: B1 VL with I29V, E42Q, T51A, Q100A
notes: as for B1
B7: VH SEQ ID NO 594 / VL SEQ ID NO 462 (antibody, IgG4, V domains shown)
VH: B1 VH with G45K
VL: B1 VL with I29V, E42Q, T51A, Q100A
notes: as for B1
B8: VH SEQ ID NO 586 / VL SEQ ID NO 382 (antibody, IgG4, V domains shown)
VH: B1 VH with P111Y
VL: B1 VL with I29L, T51A
notes: as for B1
B9: VH SEQ ID NO 594 / VL SEQ ID NO 350 (antibody, IgG4, V domains shown)
VH: B1 VH with G45K
VL: B1 VL with E42Q, Q100A, I106L
notes: as for B1
B10: VH SEQ ID NO 586 / VL SEQ ID NO 334 (antibody, IgG4, V domains shown)
VH: B1 VH with P111Y
VL: B1 VL with E42Q, T51A
notes: as for B1
B11: VH SEQ ID NO 586 / VL SEQ ID NO 438 (antibody, IgG4, V domains shown)
VH: B1 VH with P111Y
VL: B1 VL with I29V, H34A, E42Q, T51A, F83V
notes: as for B1
B12: VH SEQ ID NO 578 / VL SEQ ID NO 430 (antibody, IgG4, V domains shown)
VH: B1 VH
VL: B1 VL with I29V, H34A, E42Q, T51A, A84G
notes: as for B1
B13: VH SEQ ID NO 586 / VL SEQ ID NO 390 (antibody, IgG4, V domains shown)
VH: B1 VH with P111Y
VL: B1 VL with I29V, H34A, T51A
notes: as for B1
B14: VH SEQ ID NO 594 / VL SEQ ID NO 358 (antibody, IgG4, V domains shown)
VH: B1 VH with G45K
VL: B1 VL with E42Q
notes: as for B1
B15: VH SEQ ID NO 578 / VL SEQ ID NO 470 (antibody, IgG4, V domains shown)
VH: B1 VH
VL: B1 VL with I29V, E42Q, T51A
notes: as for B1
B16: VH SEQ ID NO 586 / VL SEQ ID NO 310 (antibody, IgG4, V domains shown)
VH: B1 VH with P111Y
VL: B1 VL with H34A, E42Q, T51A
notes: as for B1
B17: VH SEQ ID NO 578 / VL SEQ ID NO 342 (antibody, IgG4, V domains shown)
VH: B1 VH
VL: B1 VL with E42Q, T69R, Q100A, I106L
notes: as for B1
B18: VH SEQ ID NO 594 / VL SEQ ID NO 334 (antibody, IgG4, V domains shown)
VH: B1 VH with G45K
VL: B1 VL with E42Q, T51A
notes: as for B1
B19: VH SEQ ID NO 578 / VL SEQ ID NO 502 (antibody, IgG4, V domains shown)
VH: B1 VH
VL: B1 VL with I29V, E42Q
notes: as for B1
B20: VH SEQ ID NO 578 / VL SEQ ID NO 350 (antibody, IgG4, V domains shown)
VH: B1 VH
VL: B1 VL with E42Q, Q100A, I106L
notes: as for B1
B21: VH SEQ ID NO 586 / VL SEQ ID NO 342 (antibody, IgG4, V domains shown)
VH: B1 VH with P111Y
VL: B1 VL with E42Q, T69R, Q100A, I106L
notes: as for B1
B22: VH SEQ ID NO 586 / VL SEQ ID NO 430 (antibody, IgG4, V domains shown)
VH: B1 VH with P111Y
VL: B1 VL with I29V, H34A, E42Q, T51A, A84G
notes: as for B1
B23: VH SEQ ID NO 586 / VL SEQ ID NO 350 (antibody, IgG4, V domains shown)
VH: B1 VH with P111Y
VL: B1 VL with E42Q, Q100A, I106L
notes: as for B1
B24: VH SEQ ID NO 594 / VL SEQ ID NO 454 (antibody, IgG4, V domains shown)
VH: B1 VH with G45K
VL: B1 VL with I29V, T51A
notes: as for B1
B25: VH SEQ ID NO 586 / VL SEQ ID NO 502 (antibody, IgG4, V domains shown)
VH: B1 VH with P111Y
VL: B1 VL with I29V, E42Q
notes: as for B1
B26: VH SEQ ID NO 586 / VL SEQ ID NO 486 (antibody, IgG4, V domains shown)
VH: B1 VH with P111Y
VL: B1 VL with I29V, E42Q, T51A, A84G
notes: as for B1
B27: VH SEQ ID NO 578 / VL SEQ ID NO 486 (antibody, IgG4, V domains shown)
VH: B1 VH
VL: B1 VL with I29V, E42Q, T51A, A84G
notes: as for B1
B28: VH SEQ ID NO 594 / VL SEQ ID NO 342 (antibody, IgG4, V domains shown)
VH: B1 VH with G45K
VL: B1 VL with E42Q, T69R, Q100A, I106L
notes: as for B1
B29: VH SEQ ID NO 578 / VL SEQ ID NO 454 (antibody, IgG4, V domains shown)
VH: B1 VH
VL: B1 VL with I29V, T51A
notes: as for B1
B30: VH SEQ ID NO 586 / VL SEQ ID NO 406 (antibody, IgG4, V domains shown)
VH: B1 VH with P111Y
VL: B1 VL with I29V, H34A, E42Q, T51A, Q100A
notes: as for B1
B31: VH SEQ ID NO 586 / VL SEQ ID NO 454 (antibody, IgG4, V domains shown)
VH: B1 VH with P111Y
VL: B1 VL with I29V, T51A
notes: as for B1
B32: VH SEQ ID NO 594 / VL SEQ ID NO 382 (antibody, IgG4, V domains shown)
VH: B1 VH with G45K
VL: B1 VL with I29L, T51A
notes: as for B1
B33: VH SEQ ID NO 586 / VL SEQ ID NO 358 (antibody, IgG4, V domains shown)
VH: B1 VH with P111Y
VL: B1 VL with E42Q
notes: as for B1
B34: VH SEQ ID NO 586 / VL SEQ ID NO 494 (antibody, IgG4, V domains shown)
VH: B1 VH with P111Y
VL: B1 VL with I29V, E42Q, T51A, F83V
notes: as for B1
B35: VH SEQ ID NO 586 / VL SEQ ID NO 462 (antibody, IgG4, V domains shown)
VH: B1 VH with P111Y
VL: B1 VL with I29V, E42Q, T51A, Q100A
notes: as for B1
B36: VH SEQ ID NO 586 / VL SEQ ID NO 366 (antibody, IgG4, V domains shown)
VH: B1 VH with P111Y
VL: B1 VL with I29L, H34A, T51A
notes: as for B1
B37: VH SEQ ID NO 578 / VL SEQ ID NO 326 (antibody, IgG4, V domains shown)
VH: B1 VH
VL: B1 VL with A84G, Q100A, I106L
notes: as for B1
B38: VH SEQ ID NO 578 / VL SEQ ID NO 334 (antibody, IgG4, V domains shown)
VH: B1 VH
VL: B1 VL with E42Q, T51A
notes: as for B1
B39: VH SEQ ID NO 586 / VL SEQ ID NO 470 (antibody, IgG4, V domains shown)
VH: B1 VH with P111Y
VL: B1 VL with I29V, E42Q, T51A
notes: as for B1
B40: VH SEQ ID NO 578 / VL SEQ ID NO 494 (antibody, IgG4, V domains shown)
VH: B1 VH
VL: B1 VL with I29V, E42Q, T51A, F83V
notes: as for B1
B41: VH SEQ ID NO 594 / VL SEQ ID NO 318 (antibody, IgG4, V domains shown)
VH: B1 VH with G45K
VL: B1 VL
notes: as for B1
B42: VH SEQ ID NO 586 / VL SEQ ID NO 318 (antibody, IgG4, V domains shown)
VH: B1 VH with P111Y
VL: B1 VL
notes: as for B1
B43: VH SEQ ID NO 578 / VL SEQ ID NO 478 (antibody, IgG4, V domains shown)
VH: B1 VH
VL: B1 VL with I29V, E42Q, T51A, N90Q
notes: as for B1
B44: VH SEQ ID NO 578 / VL SEQ ID NO 358 (antibody, IgG4, V domains shown)
VH: B1 VH
VL: B1 VL with E42Q
notes: as for B1
B45: VH SEQ ID NO 578 / VL SEQ ID NO 382 (antibody, IgG4, V domains shown)
VH: B1 VH
VL: B1 VL with I29L, T51A
notes: as for B1

Molecular target: T1, recombinant human activated Factor VII …
Assay: BLI (Fortebio)

| Binder | Kd [µM] |
| --- | --- |
| B1 | 0.017 |
| B2 | 0.0099 |
| B3 | 0.027 |
| B4 | 0.022 |
| B5 | 0.025 |
| B6 | 0.027 |
| B7 | 0.039 |
| B8 | 0.017 |
| B9 | 0.034 |
| B10 | 0.013 |
| B11 | 0.023 |
| B12 | 0.82 |
| B13 | 0.038 |
| B14 | 0.024 |
| B15 | 0.025 |
| B16 | 1.5 |
| B17 | 0.043 |
| B18 | 0.032 |
| B19 | 0.024 |
| B20 | 0.021 |
| B21 | 0.018 |
| B22 | 0.013 |
| B23 | 0.012 |

| Binder | Kd [µM] |
| --- | --- |
| B24 | 0.032 |
| B25 | 0.015 |
| B26 | 0.018 |
| B27 | 0.023 |
| B28 | 0.12 |
| B29 | 0.025 |
| B30 | 0.019 |
| B31 | 0.016 |
| B32 | 0.14 |
| B33 | 0.011 |
| B34 | 0.017 |
| B35 | 0.018 |
| B36 | 0.021 |
| B37 | 0.016 |
| B38 | 0.022 |
| B39 | 0.015 |
| B40 | 0.028 |
| B41 | 0.023 |
| B42 | 0.0098 |
| B43 | 0.31 |
| B44 | 0.019 |
| B45 | 0.03 |
